Molecular target: Vrl1-Envy (S. cerevisiae)
Assay: co-IP

B1: Vin1-3HA (natural protein)
chain: MENDKASHASPSIGVNEFVVQGEISIDDSERSVKSVSVSISDDEDSKTDVQDNMATPSTRSKFQTDLAIDNRLLEKDPKYKKLFTEKRRRRRPESCINLMTKGKGTGQKDNINDQIFSLRILPGSDLNSLKDSLWIIKISTQPDVEKTIARAFSDFYWLYHQLQNNHWGKTIPPPTRSNILVEKDEFAINHLFMIRNNEKYDPIFNFKPEYIISLQLMAMIKHIFNDKVLRLDSNFIDFISWDDDLPESLQIVVDDSTFTGDKILMTSSQFRELKEFHKQSKKVESITNSHASLIPVTELTEIYISPTKLFSRKDYQRLFQPQSTDNTFNNNDPLIQEWIPKSKTLFTSLSFGSSAPTYQEASTEIQACHDWVSISKEQWKQLLYHVLQYIVDEAVKVNSVINEFTECLKQISLDEVIRANSELFLKFSKLNESFLKKFKGASRQDILKLIILFDENVRFCESFESILNQRLKLGKILSIIEVDLDKKKNFLDKLSPGNNNSNNEDLKIRTAEDEYRIVLKRYNRVKQSWEKIMEDILNERKEFEKREAAEVNSCLKSIRDLNMDEKKHYLQLWQDFVPDEHISQ
recovery of Vin1 in the co-IP: 64%

Source: paper doi:10.1101/2021.11.29.470412
